Laboratory results taken from patent publication US20140127815A1.

Target: GPIba (CD42b) (human) (UniProt P07359)
Assay: cell-based or functional assay

UniProt P07359, sequence (P07359 17-652): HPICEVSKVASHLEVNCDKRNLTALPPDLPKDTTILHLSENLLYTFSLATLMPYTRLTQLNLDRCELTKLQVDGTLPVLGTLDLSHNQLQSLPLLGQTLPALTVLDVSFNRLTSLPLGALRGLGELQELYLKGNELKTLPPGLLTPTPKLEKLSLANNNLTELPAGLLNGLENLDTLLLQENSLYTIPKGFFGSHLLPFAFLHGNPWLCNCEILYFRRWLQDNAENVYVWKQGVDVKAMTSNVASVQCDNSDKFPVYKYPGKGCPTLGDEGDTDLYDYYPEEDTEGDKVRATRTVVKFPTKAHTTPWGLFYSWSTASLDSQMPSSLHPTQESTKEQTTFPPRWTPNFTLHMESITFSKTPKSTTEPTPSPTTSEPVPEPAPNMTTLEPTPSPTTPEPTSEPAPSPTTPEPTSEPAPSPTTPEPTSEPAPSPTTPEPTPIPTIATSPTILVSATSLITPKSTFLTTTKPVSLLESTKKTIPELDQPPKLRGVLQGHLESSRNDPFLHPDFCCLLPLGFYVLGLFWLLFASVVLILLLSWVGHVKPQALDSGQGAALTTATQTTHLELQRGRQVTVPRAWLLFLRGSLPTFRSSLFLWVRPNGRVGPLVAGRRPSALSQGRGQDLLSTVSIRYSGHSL

- ristocetin agglutination reaction of human peripheral blood platelets (maximum light transmission): > 10 µg/mL
Substance: HIP1 antibody
